The values below come from article PMC11633101 (2024).

This assay addresses BVDV E2 protein with 6×his tag, purified from 293F cells (bovine viral diarrhea virus (BVDV), UniProt P19711 693-1066). The assay is described as follows: SPR. For orientation: In SPR one partner is held on a chip, and binding of the other changes the refractive index at the surface.

B1: bovine CD46 protein (MedChemExpress) (receptor)
chain: CDDPPRFVSMKPQGTLKPSYSPGEQIVYECHLGFQPVTPGQVLALVCQDNNTWSSLQEGCKKRRCPTLADPTNGQVILVNGSTEFGSEVHYVCNNGYYLLGTNISYCEVSSGTGVNWSDNPPTCEKILCQPPPEIQNGKYTNSHKDVFEYNEVVTYSCDPSNGPDEYSLVGESKLTCIGNGEWSSQPPQCKVVKCVYPAIEHGTIVSGFGPKYYYKATVVLKCNEGFNLYGNSVVVCGENSTWEPELPKCIKGHPPRPTDASPPNGAEG
By Kd is commonly meant the concentration at which binding is half-saturated. A high value points to a looser complex. B1: the equilibrium dissociation constant (Kd) came out at 75.1 nM.
